From patent US20170247452A1 (MacroGenics, published 2017)

How the values were obtained:
Assay in all cases: cell-based or functional assay
[1] = biological target: T1, human CD19 on cells (CD20+ gated blood B cells; Raji/GF, HBL-2, Jeko-1 cells; CLL B cells) (human, UniProt P15391 20-556)
T1 sequence (looked up): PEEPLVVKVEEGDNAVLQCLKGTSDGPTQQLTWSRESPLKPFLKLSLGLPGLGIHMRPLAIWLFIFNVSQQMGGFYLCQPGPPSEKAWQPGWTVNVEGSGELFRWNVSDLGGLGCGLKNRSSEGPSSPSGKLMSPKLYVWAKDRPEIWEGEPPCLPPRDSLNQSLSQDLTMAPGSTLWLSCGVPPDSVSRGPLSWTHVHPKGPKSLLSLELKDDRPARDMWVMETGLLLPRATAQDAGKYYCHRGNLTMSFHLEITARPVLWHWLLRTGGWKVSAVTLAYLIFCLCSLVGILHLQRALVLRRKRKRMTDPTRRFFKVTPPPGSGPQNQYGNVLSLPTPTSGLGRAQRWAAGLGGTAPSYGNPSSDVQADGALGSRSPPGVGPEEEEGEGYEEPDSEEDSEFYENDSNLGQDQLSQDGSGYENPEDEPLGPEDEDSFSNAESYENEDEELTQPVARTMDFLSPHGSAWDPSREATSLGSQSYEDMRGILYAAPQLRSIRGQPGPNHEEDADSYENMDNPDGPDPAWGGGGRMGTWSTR

[2] = biological target: T1, human CD19 on cells (CD20+ gated blood …); remark: listed apart in the source
[3] = biological target: T1, human CD19 on cells (CD20+ gated blood …); remark: listed apart in the source
[4] = biological target: T2, cynomolgus monkey CD19 on CD20+ gated blood B cells (cynomolgus monkey, UniProt A0A2K5W8L9 20-557)
T2 sequence: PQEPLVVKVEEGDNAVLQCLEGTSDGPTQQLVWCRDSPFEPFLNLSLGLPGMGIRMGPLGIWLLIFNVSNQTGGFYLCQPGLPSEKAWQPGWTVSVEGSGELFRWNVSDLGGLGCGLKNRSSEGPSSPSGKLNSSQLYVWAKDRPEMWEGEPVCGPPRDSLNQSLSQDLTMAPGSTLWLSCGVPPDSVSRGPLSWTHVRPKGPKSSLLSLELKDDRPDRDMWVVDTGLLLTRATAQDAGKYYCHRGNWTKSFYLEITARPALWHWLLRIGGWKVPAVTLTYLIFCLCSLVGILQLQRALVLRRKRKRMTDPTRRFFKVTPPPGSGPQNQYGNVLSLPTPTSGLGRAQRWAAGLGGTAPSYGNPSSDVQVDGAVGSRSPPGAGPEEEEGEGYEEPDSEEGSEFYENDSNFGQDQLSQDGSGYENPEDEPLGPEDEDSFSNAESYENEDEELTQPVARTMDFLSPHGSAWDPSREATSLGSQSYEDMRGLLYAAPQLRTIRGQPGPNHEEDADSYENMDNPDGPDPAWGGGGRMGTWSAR

[5] = biological target: T1, human CD19 on cells (CD20+ gated blood …); remark: listed apart in the source
[6] = biological target: T1, human CD19 on cells (CD20+ gated blood …); remark: listed apart in the source
[7] = biological target: T1, human CD19 on cells (CD20+ gated blood …); remark: listed apart in the source

B1: DART-A (CD19×CD3 bi-specific monovalent Fc diabody) (bispecific antibody)
chain 1: ENVLTQSPATLSVTPGEKATITCRASQSVSYMHWYQQKPGQAPRLLIYDASNRASGVPSRFSGSGSGTDHTLTISSLEAEDAATYYCFQGSVYPFTFGQGTKLEIKGGGSGGGGEVQLVESGGGLVQPGGSLRLSCAASGFTFSTYAMNWVRQAPGKGLEWVGRIRSKYNNYATYYADSVKGRFTISRDDSKNSLYLQMNSLKTEDTAVYYCVRHGNFGNSYVSWFAYWGQGTLVTVSSASTKGEVAACEKEVAALEKEVAALEKEVAALEKGGGDKTHTCPPCPAPEAAGGPSVFLFPPKPKDTLMISRTPEVTCVVVDVSHEDPEVKFNWYVDGVEVHNAKTKPREEQYNSTYRVVSVLTVLHQDWLNGKEYKCKVSNKALPAPIEKTISKAKGQPREPQVYTLPPSREEMTKNQVSLWCLVKGFYPSDIAVEWESNGQPENNYKTTPPVLDSDGSFFLYSKLTVDKSRWQQGNVFSCSVMHEALHNHYTQKSLSLSPGK
chain 2: QAVVTQEPSLTVSPGGTVTLTCRSSTGAVTTSNYANWVQQKPGQAPRGLIGGTNKRAPWTPARFSGSLLGGKAALTITGAQAEDEADYYCALWYSNLWVFGGGTKLTVLGGGGSGGGGQVTLRESGPALVKPTQTLTLTCTFSGFSLSTSGMGVGWIRQPPGKALEWLAHIWWDDDKRYNPALKSRLTISKDTSKNQVFLTMTNMDPVDTATYYCARMELWSYYFDYWGQGTTVTVSSASTKGKVAACKEKVAALKEKVAALKEKVAALKE
chain 3: not shown
- EC50, redirected killing of Raji/GF cells, 24 hours, E:T = 5:1 [1]: 0.67 pM
- EC50, redirected killing of Raji/GF cells, 24 hours, E:T = 10:1 [1]: 0.14 pM
- EC50, redirected killing of Raji/GF cells, 48 hours, E:T = 2.5:1 [1]: 1.08 pM
- EC50, redirected killing of Raji/GF cells, 48 hours, E:T = 5:1 [1]: 0.38 pM
- EC50, redirected killing of Raji/GF cells, 48 hours, E:T = 10:1 [1]: 0.0441 pM
- mean EC50, IFN-γ release, human T cells with Raji/GF cells (n = 2) [2]: 5.51 pM
- mean EC50, IL-2 release, human T cells with Raji/GF cells (n = 2) [2]: 6.32 pM
- mean EC50, TNF-α release, human T cells with Raji/GF cells (n = 2) [2]: 3.71 pM
- mean EC50, cytotoxicity, HBL-2 (n = 5), CTL assay [2]: 0.11 pM
- mean EC50, cytotoxicity, Jeko-1 (n = 3), CTL assay [2]: 0.15 pM
- mean EC50, cytotoxicity, Raji/GF (n = 5), CTL assay [2]: 0.31 pM
- EC50, autologous B cell depletion in human PBMCs, Human 5 (E:T = 8:1) [3]: 6.27 pM
- EC50, autologous B cell depletion in human PBMCs, Human 6 (E:T = 8:1) [3]: 2.75 pM
- EC50, autologous B cell depletion in human PBMCs, Human 7 (E:T = 5:1) [3]: 5.52 pM
- EC50, autologous B cell depletion in human PBMCs, Human 8 (E:T = 9:1) [3]: 1.84 pM
- mean EC50, autologous B cell depletion in human PBMCs [3]: 4.2 pM
- EC50, autologous B cell depletion in cynomolgus monkey PBMCs, Cyno 5 (E:T = 3:1) [4]: 166 pM
- EC50, autologous B cell depletion in cynomolgus monkey PBMCs, Cyno 6 (E:T = 2:1) [4]: 859 pM
- EC50, autologous B cell depletion in cynomolgus monkey PBMCs, Cyno 7 (E:T = 3:1) [4]: 107 pM
- EC50, autologous B cell depletion in cynomolgus monkey PBMCs, Cyno 8 (E:T = 7:1) [4]: 239 pM
- mean EC50, autologous B cell depletion in cynomolgus monkey PBMCs [4]: 343 pM
- EC50, IFN-γ production, human T cells with Raji/GF cells, donor D44284, E:T = 10:1 [5]: 2.44 pM
- EC50, IFN-γ production, human T cells with Raji/GF cells, donor D47067, E:T = 10:1 [5]: 8.58 pM
- EC50, IL-2 production, human T cells with Raji/GF cells, donor D44284, E:T = 10:1 [5]: 1.33 pM
- EC50, IL-2 production, human T cells with Raji/GF cells, donor D47067, E:T = 10:1 [5]: 11.3 pM
- EC50, TNF-α production, human T cells with Raji/GF cells, donor D44284, E:T = 10:1 [5]: 0.626 pM
- EC50, TNF-α production, human T cells with Raji/GF cells, donor D47067, E:T = 10:1 [5]: 6.79 pM
- EC50, redirected killing of Raji/GF cells, 72 hours, E:T = 1:1 [6]: 2.79 pM
- EC50, redirected killing of Raji/GF cells, 72 hours, E:T = 2.5:1 [6]: 1.54 pM
- EC50, redirected killing of Raji/GF cells, 96 hours, E:T = 1:1 [6]: 0.44 pM
- EC50, redirected killing of Raji/GF cells, 96 hours, E:T = 2.5:1 [6]: 0.422 pM
- EC50, cytotoxicity against Raji/GF target cells with cynomolgus monkey PBMCs as effector cells (E:T = 30:1) [7]: 0.013 pM
- average EC50 of redirected killing of HBL-2 cells, human T cells, E:T 10:1 [7]: 0.105 pM
- average EC50 of redirected killing of Jeko-1 cells, human T cells, E:T 10:1 [7]: 0.146 pM
- average EC50 of redirected killing of Raji/GF cells, human T cells, E:T 10:1 [7]: 0.307 pM
